# Data from the Human Domainome abundance scans (Beltran et al. 2025).
# ± gives the uncertainty stated by the source.
# B1: DnaJ homolog subfamily C member 5, residues 16 to 77; numbered along this chain, Q9H3Z4 (parent)
# chain: LYHVLGLDKNATSDDIKKSYRKLALKYHPDKNPDNPEAADKFKEINNAHAILTDATKRNIYD
# Variants of: B1
# Test: abundance fitness (aPCA) (normalised: wild type 0, dead -1); higher = more abundant; growth selection in yeast, the domain comes from the species named
# Conditions: Homo sapiens
row,Variant,abundance fitness
1,N59M,-0.179 ± 0.1
2,N59Y,-0.471 ± 0.17
3,N59H,-0.125 ± 0.14
4,N59V,-0.121 ± 0.1
5,N59I,-0.044 ± 0.12
6,N59Q,0.007 ± 0.1
7,N59G,0.101 ± 0.077
8,N59R,-0.107 ± 0.072
9,N59D,-0.234 ± 0.19
10,N59F,-0.151 ± 0.16
11,N59W,-0.396 ± 0.087
12,N59L,-0.139 ± 0.063
13,N59S,-0.029 ± 0.089
14,N59E,0.152 ± 0.11
15,D62Y,-0.849 ± 0.29
16,D62P,-0.349 ± 0.17
17,D62Q,-0.58 ± 0.38
18,D62K,-0.661 ± 0.27
19,D62S,-0.421 ± 0.13
20,D62V,-0.662 ± 0.14
21,D62W,-0.546 ± 0.27
22,D62N,-0.465 ± 0.12

row,Variant,abundance fitness
1,D62R,-0.428 ± 0.4
2,D62A,-0.188 ± 0.12
3,D62T,-0.894 ± 0.49
4,D62L,-0.472 ± 0.28
5,D62G,-0.16 ± 0.083
6,D62M,-0.743 ± 0.15
7,I60K,0.197 ± 0.11
8,I60W,0.008 ± 0.09
9,I60Y,-0.074 ± 0.16
10,I60P,-0.039 ± 0.088
11,I60H,-0.135 ± 0.2
12,I60S,0.258 ± 0.076
13,I60L,0.077 ± 0.093
14,I60C,0.109 ± 0.1
15,I60M,0.114 ± 0.1
16,I60E,0.522 ± 0.094
17,I60D,0.493 ± 0.21
18,I60A,0.257 ± 0.092
19,I60R,0.08 ± 0.059
20,I60G,0.223 ± 0.065
21,I60T,0.054 ± 0.12
22,I60V,0.176 ± 0.093

row,Variant,abundance fitness
1,I60Q,0.168 ± 0.13
2,Y61T,0.073 ± 0.11
3,Y61F,-0.273 ± 0.12
4,Y61M,-0.218 ± 0.12
5,Y61L,-0.09 ± 0.087
6,Y61P,0.244 ± 0.12
7,Y61Q,0.104 ± 0.14
8,Y61D,0.22 ± 0.12
9,Y61I,-0.129 ± 0.11
10,Y61E,0.157 ± 0.12
11,Y61S,0.182 ± 0.067
12,Y61A,0.165 ± 0.089
13,Y61K,-0.174 ± 0.15
14,Y61W,-0.511 ± 0.12
15,Y61V,0.002 ± 0.083
16,Y61C,-0.063 ± 0.098
17,Y61H,0.054 ± 0.21
18,Y61N,-0.199 ± 0.16
19,Y61G,0.226 ± 0.063
20,Y61R,0.03 ± 0.076
